The values below are quoted from earlier work in article PMC10502159.

For orientation: Kd means the free concentration of one partner at which half of the binding sites on the other are occupied at equilibrium, for simple one-to-one binding.

Series [1] has as its target TLR4 1-631 (Homo sapiens) (UniProt O00206). In words: SPR.
Series [2] deals with pCTS-L (procathepsin L) (Homo sapiens) (UniProt P07711). Kind of series: OpenSPR.
A further series has as its target TLR4 (Homo sapiens) (UniProt O00206). In words: OpenSPR.
Series [3] has as its target EGFR ECD (Homo sapiens) (UniProt P00533). In words: SPR (OpenSPR).
The target is the same in series [4]. In words: SPR (Biacore). Background: Surface plasmon resonance follows binding to a sensor surface in real time, without labels.

Sequence of dermcidin (P81605 20-110): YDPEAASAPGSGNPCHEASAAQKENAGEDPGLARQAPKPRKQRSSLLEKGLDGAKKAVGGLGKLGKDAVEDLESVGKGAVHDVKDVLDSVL
Sequence of TLR4 (Homo sapiens) (O00206 24-631): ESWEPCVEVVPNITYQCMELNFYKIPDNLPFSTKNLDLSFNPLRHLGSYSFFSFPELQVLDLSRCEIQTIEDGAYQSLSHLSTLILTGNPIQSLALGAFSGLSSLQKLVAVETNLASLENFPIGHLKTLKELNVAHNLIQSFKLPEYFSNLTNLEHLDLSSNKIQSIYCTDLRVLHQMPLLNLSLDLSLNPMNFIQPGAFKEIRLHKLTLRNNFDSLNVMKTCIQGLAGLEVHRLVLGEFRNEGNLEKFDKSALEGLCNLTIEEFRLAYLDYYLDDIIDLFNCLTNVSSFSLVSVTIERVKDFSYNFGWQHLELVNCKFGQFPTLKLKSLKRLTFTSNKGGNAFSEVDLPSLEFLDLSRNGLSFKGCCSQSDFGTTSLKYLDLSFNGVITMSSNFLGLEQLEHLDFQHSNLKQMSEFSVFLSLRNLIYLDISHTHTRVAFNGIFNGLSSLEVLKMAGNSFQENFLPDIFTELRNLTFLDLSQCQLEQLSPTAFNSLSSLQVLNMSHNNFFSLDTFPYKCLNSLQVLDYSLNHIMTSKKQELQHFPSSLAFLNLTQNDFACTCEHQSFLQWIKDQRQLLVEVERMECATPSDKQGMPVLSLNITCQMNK
Sequence of TLR4 (O00206 24-631): as above
Sequence of pCTS-L (procathepsin L) (Homo sapiens) (P07711 18-333): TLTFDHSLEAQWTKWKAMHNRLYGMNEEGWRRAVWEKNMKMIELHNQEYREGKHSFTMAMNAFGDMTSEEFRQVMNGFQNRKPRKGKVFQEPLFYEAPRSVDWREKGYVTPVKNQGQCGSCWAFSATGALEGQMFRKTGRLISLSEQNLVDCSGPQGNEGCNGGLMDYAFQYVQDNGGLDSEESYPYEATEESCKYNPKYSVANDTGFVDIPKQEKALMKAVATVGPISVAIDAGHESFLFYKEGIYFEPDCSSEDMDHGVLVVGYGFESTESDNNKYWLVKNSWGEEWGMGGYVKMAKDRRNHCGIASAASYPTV
Sequence of pCTS-L (procathepsin L) (P07711 18-333): as above
Sequence of TLR4 1-631 (Homo sapiens) (O00206 1-631): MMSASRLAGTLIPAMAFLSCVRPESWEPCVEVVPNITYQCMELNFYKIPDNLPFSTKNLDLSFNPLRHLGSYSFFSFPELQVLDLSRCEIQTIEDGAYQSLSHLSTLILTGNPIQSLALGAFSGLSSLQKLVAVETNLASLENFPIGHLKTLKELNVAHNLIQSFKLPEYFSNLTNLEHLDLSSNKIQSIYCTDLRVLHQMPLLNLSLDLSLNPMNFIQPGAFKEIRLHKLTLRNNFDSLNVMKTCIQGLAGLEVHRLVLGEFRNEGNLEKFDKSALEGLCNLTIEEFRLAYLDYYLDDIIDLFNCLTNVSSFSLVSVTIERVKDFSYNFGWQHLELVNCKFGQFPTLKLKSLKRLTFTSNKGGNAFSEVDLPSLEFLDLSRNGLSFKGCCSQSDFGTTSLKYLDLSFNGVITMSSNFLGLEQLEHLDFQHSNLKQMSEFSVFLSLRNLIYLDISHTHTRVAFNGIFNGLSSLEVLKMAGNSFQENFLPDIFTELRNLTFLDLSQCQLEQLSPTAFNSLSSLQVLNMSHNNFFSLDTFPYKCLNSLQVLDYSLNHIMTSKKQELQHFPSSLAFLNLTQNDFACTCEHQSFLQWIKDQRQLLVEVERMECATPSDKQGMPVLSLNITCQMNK
Sequence of procathepsin L (pCTS-L) 17-333 (P07711 17-333): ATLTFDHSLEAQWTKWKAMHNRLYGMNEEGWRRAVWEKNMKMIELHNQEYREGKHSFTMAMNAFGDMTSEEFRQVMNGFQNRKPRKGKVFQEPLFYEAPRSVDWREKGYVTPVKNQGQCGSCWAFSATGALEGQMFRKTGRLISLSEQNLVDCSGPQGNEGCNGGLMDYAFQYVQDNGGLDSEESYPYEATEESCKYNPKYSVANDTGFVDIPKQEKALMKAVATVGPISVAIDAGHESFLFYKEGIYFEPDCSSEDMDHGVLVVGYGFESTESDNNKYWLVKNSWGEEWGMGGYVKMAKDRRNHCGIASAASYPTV

Consider “procathepsin L (pCTS-L) 17-333 (from UniProt P07711)”, for which the Kd in series [1] is 0.0646 µM.

Take TLR4 (from UniProt O00206): the Kd in series [2] is 0.0646 µM.

Consider “pCTS-L (procathepsin L) (from UniProt P07711)”, for which the dissociation constant Kd in the series with TLR4 (Homo sapiens) was 0.0202 µM.

With dermcidin (from UniProt P81605), the results for the Kd in the series with EGFR ECD (Homo sapiens) [3] and with EGFR ECD (Homo sapiens) [4] were 0.0581 µM and 0.0588 µM, respectively.
